# Literature values, collected in article PMC6723671.
# Target: CD150 (SLAM) ECD (Homo sapiens) (UniProt Q13291)
substance,measurement,value
CD150 (SLAM) ECD (from UniProt Q13291),Kd,> 200 µM
